Test results taken from US20120214173A1, “Methods of Identifying Modulators of an Ehd Polypeptide” (priority 2007, published 2012).
Residue numbers refer to the chain shown, from its start. In names and notes the source's numbering stands. Several values for one entry are separate records, joined by “and”; a condition that tells them apart may be missing. Equal entries are not always repeated. Entries after “also recorded” stand apart in the source; their conditions may differ. Ends that are not written are not given here.

Key:
[1] = biological target: T1, EHD2 (Mus musculus, UniProt Q8BH64); experiment: ITC nucleotide binding to EHD2; conditions: ITC at 10° C.
T1 construct: Mouse EHD2 full-length protein and all mutants were expressed as N-terminal His-fusions followed by a PreScission cleavage site; His (N, cleaved yes); made in house; host or cells: Escherichia coli BL21 DE3 Rosetta
T1 sequence (Q8BH64 1-543): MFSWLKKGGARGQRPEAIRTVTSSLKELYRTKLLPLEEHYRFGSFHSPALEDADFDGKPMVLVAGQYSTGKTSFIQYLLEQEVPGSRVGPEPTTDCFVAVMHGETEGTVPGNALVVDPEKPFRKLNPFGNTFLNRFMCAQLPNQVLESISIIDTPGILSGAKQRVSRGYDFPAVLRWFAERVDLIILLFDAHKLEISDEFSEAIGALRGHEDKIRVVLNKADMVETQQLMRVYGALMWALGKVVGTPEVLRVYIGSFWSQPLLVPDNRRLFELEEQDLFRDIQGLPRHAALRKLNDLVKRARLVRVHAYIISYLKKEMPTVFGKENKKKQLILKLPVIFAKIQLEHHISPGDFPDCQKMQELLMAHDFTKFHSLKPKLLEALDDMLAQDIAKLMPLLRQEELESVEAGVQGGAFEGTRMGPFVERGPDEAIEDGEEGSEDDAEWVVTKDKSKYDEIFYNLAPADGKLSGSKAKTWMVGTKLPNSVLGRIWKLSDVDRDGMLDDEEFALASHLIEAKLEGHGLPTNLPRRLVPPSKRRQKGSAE
Description: (§1) Amino acid numbering corresponds to mouse EHD2. b, EHD2 binds to adenine nucleotides, as determined by ITC. For clarity, ΔΔH=ΔHn−ΔH1 is plotted. […] Images were acquired close to the basal cell surface. f, Nucleotide hydrolysis was measured by HPLC in the absence (empty symbols) or presence of Folch liposomes (filled symbols). Data represent mean and standard deviation for two (intrinisic reactions) or three (stimulated reactions) independent experiments.
(§2) ITC measurements were performed at 10° C. in 20 mM HEPES (pH 7.5), 300 mM NaCl, 2 mM MgCl2. Liposome binding assays were performed as described previously (www.endocytosis.org). Multiple turnover ATPase assays were performed in 20 mM HEPES (pH 7.5), 135 mM NaCl, 15 mM KCl, 1 mM MgCl2 at 30° C. with 10 μM EHD2 (or mutants) as enzyme and 100 μM ATP as substrate, in the absence or presence of 1 mg/ml Folch liposomes (Sigma-Aldrich).
Mouse full-length EHD2 was expressed in bacteria and purified to homogeneity (FIG. 5). The purified protein was nucleotide-free as judged by HPLC analysis. […] It was previously reported that EHDs—despite having a predicted G-domain—bind to adenine nucleotides^15. […] We still refer to this domain as a G-domain because the sequence and fold (see below) are clearly similar to other G-domains. […] Using synthetic liposomes containing various different phosphatidyl-inositols (PI) (FIG. 1c) we observed best binding to liposomes containing PI(4,5)bisphosphate (PIP2).

[2] = biological target: T2, EH-domain of EHD2 (Mus musculus, UniProt Q8BH64); experiment: ITC peptide binding to the EH-domain of EHD2; conditions: ITC at 10° C.; for affinity of xPF peptide to the EH-domain of EHD2 by ITC: 100 mM HEPES (pH 7.5), 50 mM NaCl, 200 μM CaCl2
T2 sequence (Q8BH64 449-537 limits assumed): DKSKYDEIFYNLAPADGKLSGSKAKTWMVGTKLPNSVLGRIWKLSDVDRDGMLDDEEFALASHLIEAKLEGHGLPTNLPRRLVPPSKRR
Source text: EH-domains are low affinity protein-protein interactors normally found in endocytic multi-subunit assemblies. A likely purpose of the EH-domain is in recruitment of the protein to sites of action. […] An alternative explanation for the function of the EH-domain in the oligomer can be proposed based on the presence of two conserved PF motifs (NPF and IPF) in a disordered surface loop at the side of the G-domain between β-sheet 2A and 2B. In our proposed oligomer, the EH-domains from one dimer are close to the side-site NPF motif of the adjacent dimer (FIG. 4c) and thus after oligomerisation on membranes they may switch position from the top site position in the dimer to the side site in the opposing dimer. […] A dominant negative mutant in C. elegans Rme1 is found in the linker between the EH-domain and the helical domain^3 pointing to the importance of this flexible linker.

[3] = biological target: T1, EHD2; experiment: Multiple turnover ATPase assay (nucleotide hydrolysis by HPLC) with or without Folch liposomes; type: biochemical
Description: as §1, §2
Reactions were started by the addition of the protein to the final reaction mix and nucleotide hydrolysis was followed using standard HPLC measurement^27. Initial rates were determined by applying a linear fit to data points up to 40% nucleotide hydrolysis. For electron microscopic studies, 2.5 μM EHD2 in 20 mM HEPES (pH 7.5), 150 mM NaCl, 1 mM MgCl2 was incubated for 15 min at 25° C. in the presence of 1 mM nucleotide and 0.05 mg/ml (final concentration) of the indicated liposomes. Samples were spotted on carbon-coated copper grids (Canemco and Marivac) and negatively stained with 2% uranyl acetate.
We next monitored the effect of membrane-binding on the ATPase activity of. EHD2 under multiple-turnover conditions (10-fold excess of ATP over EHD2), in the presence and absence of Folch liposoines (FIG. 1f). The intrinsic/background ATPase activity is extremely slow (kobs=0.7 h^−1) but is stimulated 8-fold in the presence of Folch or PS liposomes (kobs=5.6 h^−1).

[4] = biological target: Q8BH64
[5] = tested on: HeLa cells; experiment: Over-expression of EGFP-tagged EHD2 and mutants in HeLa cells (confocal / live imaging); type: cell-based; conditions: 24 h after transfection, fixed
Description: as §1
Nucleotide hydrolysis was measured as described in FIG. 1f. In vitro tubulation activity of PS liposomes was analysed as described in FIG. 1d. f, EGFP-tagged mutants were over-expressed in HeLa cells. […] For each construct, three independent experiments with ≈50 cells/experiments were analysed.
Ultracentrifugation. Sedimentation velocity experiments were performed in a Beckman Optima XLA ultracentrifuge, using an An-60Ti rotor. Centrifugation was at 50,000 rev×min and 5° C. at an EHD2 concentration of 15 μM, with scans as fast as possible (˜1.5 min intervals). The data were analysed using DCDT+ v.2^44,45, with the partial specific volume for the protein (from the amino acid composition) and solvent density and viscosity calculated using Sednterp^46. Selected scans (at equal, ˜15 min intervals), and of g(s20,w) (the amount of material sedimenting between s20,w and (s20,w+δs)) and also the residuals for fitting the data with DCDT+, were plotted with the program profit v.5.6.7 (Quantum soft, Switzerland). Cell biology. N-terminal EGFP-tagged EHD2 and all mutants were over-expressed in HeLa cells from the pEGFP-C3 vector (Clontech). HeLa cells were grown as per ECACC guidelines with 10% fetal bovine serum and transfected using Genejuice (Novagen) for transient protein expression. 24 h after transfection, cells were fixed for 10 min at 37° C. in 3% paraformaldehyde and mounted. All confocal images were taken sequentially using a BioRad Radiance system and LaserSharp software (Biorad). For real-time microscopy, transfected cells on glass-bottom Petri dishes (WillCo Wells BV, Amsterdam) were washed with 25 mM HEPES (pH 7.5), 125 mM NaCl, 5 mM KCl, 10 mM D-glucose, 1 mM MgCl2, 2 mM CaCl), and epifluorescence images were taken using an Olympus IX70 microscope (Southhall, UK) and Argon laser (Melles Griot, Carlsbad, Calif.) with a Princeton instruments (Trenton, N.J.) cooled I-PentaMAX camera with MetaMorph software (Universal imaging).
EHD2 wild-type was over-expressed in HeLa cells for 24 h and imaged by EPI-fluorescence for approximately 30 min.
EHD2 T94A was over-expressed in HeLa cells for 24 h and imaged by EPI-fluorescence for approximately 30 min. […] EHD2 I157Q was over-expressed in HeLa cells for 24 h and imaged by EPI-fluorescence for approximately 30 min.

## Nc1ncnc2c1ncn2[C@@H]1O[C@H](COP(=O)(O)OP(=O)(O)O)[C@@H](O)[C@H]1O [ADP]
[1]
  n (fitted ITC value), nucleotide binding to EHD2: 0.9
[1]; 20 mM HEPES (pH 7.5), 300 mM NaCl, 2 mM MgCl2, read-out: affinity to EHD2 determined by ITC
  Kd: 50 µM and ~50 µM

## PEKPFRKL [peptide from EHD2 containing KPF motif]
[2]
  affinity of xPF peptide to the EH-domain of EHD2 by ITC: did not (show detectable binding

## RMGPFVER [peptide from EHD2 linker containing GPF motif]
[2]
  affinity of xPF peptide to the EH-domain of EHD2 by ITC: did not (show detectable binding
[2]; listed as top site GPF peptide
  affinity of xPF peptide to the EH-domain of EHD2 by ITC: not the top site GPF peptide, bound with a measurable affinity

## KLNPFGNT [KLNPFGNT]
[2]
  n (fitted ITC value), peptide binding to EH-domain: 1.33

## Nc1nc2c(ncn2[C@@H]2O[C@H](COP(=O)(O)OP(=O)(O)OP(O)(O)=S)[C@@H](O)[C@H]2O)c(=O)[nH]1 [GTP-γ-S]
[1]; 20 mM HEPES (pH 7.5), 300 mM NaCl, 2 mM MgCl2
  affinity to EHD2 determined by ITC: No binding signal was observed

## Nc1nc2c(ncn2[C@@H]2O[C@H](COP(=O)(O)OP(=O)(O)OP(=O)(O)O)[C@@H](O)[C@H]2O)c(=O)[nH]1 [GTP, reference compound]
[3]; presence or absence of Folch liposomes
  GTP hydrolysis by EHD2 (in words): not stimulated; also recorded: not hydrolysed

B1: EHD2 E91Q (protein)
chain: T1 sequence (Q8BH64 1-543) with E91Q
[4]
  assembly-stimulated ATP hydrolysis: all mutants showed reduced or completely abolished assembly-stimulated ATP hydrolysis

B2: EHD2 R167E (protein)
chain: T1 sequence (Q8BH64 1-543) with R167E
[4]
  assembly-stimulated ATP hydrolysis: all mutants showed reduced or completely abolished assembly-stimulated ATP hydrolysis
  nucleotide hydrolysis (basal and Folch-stimulated ATPase): mutant R167E (in Switch II) showed an increased basal ATPase activity which was not further stimulated by Folch liposomes
[3]; absence of membranes
  intrinsic/basal ATPase activity (in words): increased basal ATPase activity
[3]; presence of Folch liposomes
  membrane-stimulated ATPase activity (in words): not further stimulated by Folch liposomes

B3: EHD2 K193D (protein)
chain: T1 sequence (Q8BH64 1-543) with K193D
[4]
  assembly-stimulated ATP hydrolysis: all mutants showed reduced or completely abolished assembly-stimulated ATP hydrolysis

B4: EHD2 D198R (protein)
chain: T1 sequence (Q8BH64 1-543) with D198R
[4]
  assembly-stimulated ATP hydrolysis: all mutants showed reduced or completely abolished assembly-stimulated ATP hydrolysis

B5: K324D: EHD2 polybasic cluster mutant (protein, UniProt Q8BH64 1-543, looked up, variant K324D)
EH domain-containing protein 2: T1 sequence (Q8BH64 1-543) with K324D
[5]
  distribution of EGFP-tagged protein over-expressed in HeLa cells: completely cytoplasmic distribution

B6: K327D: EHD2 polybasic cluster mutant (protein, UniProt Q8BH64 1-543, looked up, variant K327D)
EH domain-containing protein 2: T1 sequence (Q8BH64 1-543) with K327D
[5]
  distribution of EGFP-tagged protein over-expressed in HeLa cells: completely cytoplasmic distribution

B7: K329D: EHD2 polybasic cluster mutant (protein, UniProt Q8BH64 1-543, looked up, variant K329D)
EH domain-containing protein 2: T1 sequence (Q8BH64 1-543) with K329D
[5]
  distribution of EGFP-tagged protein over-expressed in HeLa cells: completely cytoplasmic distribution
